According to paper PMC10372164 (Molecular Therapy. Nucleic Acids, 2023):

Molecular target: the molecule itself
Assay: SEC

B1: human ornithine transcarbamylase labeled with 3x FLAG at the C-terminus (enzyme, UniProt P00480 33-354, looked up)
chain: NKVQLKGRDLLTLKNFTGEEIKYMLWLSADLKFRIKQKGEYLPLLQGKSLGMIFEKRSTRTRLSTETGFALLGGHPCFLTTQDIHLGVNESLTDTARVLSSMADAVLARVYKQSDLDTLAKEASIPIINGLSDLYHPIQILADYLTLQEHYSSLKGLTLSWIGDGNNILHSIMMSAAKFGMHLQAATPKGYEPDASVTKLAEQYAKENGTKLLLTNDPLEAAHGGNVLITDTWISMGQEEEKKKRLQAFQGYQVTMKTAKVAASDWTFLHCLPRKPEEVDDEVFYSPRSLVFPEAENRKWTIMAVMVSLLTDYSPQLQKPKF
For B1, the “stoichiometry N” value was 3.
